# According to article PMC4909763 (Frontiers in Plant Science, 2016):
# Molecular target: the molecule itself
# Test: native gel or EMSA
row,Protein,stoichiometry N
1,"plant-made recombinant human butyrylcholinesterase, apoplast-targeted (prBChE) (enzyme, UniProt P06276 29-602, looked up, also called prBuChE; prBChE-AWF) EDDIIIATKNGKVRGMNLTVFGGTVTAFLGIPYAQPPLGRLRFKKPQSLTKWSDIWNATKYANSCCQNIDQSFPGFHGSEMWNPNTDLSEDCLYLNVWIPAPKPKNATVLIWIYGGGFQTGTSSLHVYDGKFLARVERVIVVSMNYRVGALGFLALPGNPEAPGNMGLFDQQLALQWVQKNIAAFGGNPKSVTLFGESAGAASVSLHLLSPGSHSLFTRAILQSGSFNAPWAVTSLYEARNRTLNLAKLTGCSRENETEIIKCLRNKDPQEILLNEAFVVPYGTPLSVNFGPTVDGDFLTDMPDILLELGQFKKTQILVGVNKDEGTAFLVYGAPGFSKDNNSIITRKEFQEGLKIFFPGVSEFGKESILFHYTDWVDDQRPENYREALGDVVGDYNFICPALEFTKKFSEWGNNAFFYYFEHRSSKLPWPEWMGVMHGYEIEFVFGLPLERRDNYTKAEEILSRSIVKRWANFAKYGNPNETQNNSTSWPVFKSTEQKYLTLNTESTRIMTKLRAQQCRFWTSFFPKVLEMTGNIDEAEWEWKAGFHRWNNYMMDWKNQFNDYTSKKESCVGL",4
2,"ER-retained plant-made recombinant human butyrylcholinesterase (prBChE-ER) (enzyme, also called prBChE+KDEL; rBChE+KDEL) EDDIIIATKNGKVRGMNLTVFGGTVTAFLGIPYAQPPLGRLRFKKPQSLTKWSDIWNATKYANSCCQNIDQSFPGFHGSEMWNPNTDLSEDCLYLNVWIPAPKPKNATVLIWIYGGGFQTGTSSLHVYDGKFLARVERVIVVSMNYRVGALGFLALPGNPEAPGNMGLFDQQLALQWVQKNIAAFGGNPKSVTLFGESAGAASVSLHLLSPGSHSLFTRAILQSGSFNAPWAVTSLYEARNRTLNLAKLTGCSRENETEIIKCLRNKDPQEILLNEAFVVPYGTPLSVNFGPTVDGDFLTDMPDILLELGQFKKTQILVGVNKDEGTAFLVYGAPGFSKDNNSIITRKEFQEGLKIFFPGVSEFGKESILFHYTDWVDDQRPENYREALGDVVGDYNFICPALEFTKKFSEWGNNAFFYYFEHRSSKLPWPEWMGVMHGYEIEFVFGLPLERRDNYTKAEEILSRSIVKRWANFAKYGNPNETQNNSTSWPVFKSTEQKYLTLNTESTRIMTKLRAQQCRFWTSFFPKVLEMTGNIDEAEWEWKAGFHRWNNYMMDWKNQFNDYTSKKESCVGLKDEL",4
